Source: the Immune Epitope Database (IEDB)

Assays:
[1] = target: HLA-A*24:02; assay: IEDB peptide-MHC binding, purified MHC/competitive/fluorescence; ≥ and ≤ were set here for values at or beyond the usual limits of such assays
[2] = target: HLA-A*11:01; assay: as above
[3] = target: HLA-B*51:01; assay: IEDB peptide-MHC binding, purified MHC/competitive/radioactivity; filed as Kd, often an IC50 or EC50 that approximates it; ≥ and ≤ were set here for values at or beyond the usual limits of such assays
[4] = target: HLA-B*53:01; assay: as above
[5] = target: HLA-B*35:01; assay: as above
[6] = target: HLA-B*07:02; assay: as above
[7] = target: HLA-B*54:01; assay: as above
[8] = target: HLA-A*30:01; assay: as above; details: source organism: Dengue virus 1 Brazil/97-11/1997
[9] = target: HLA-A*01:01; assay: as above; details: source organism: Dengue virus 1 Brazil/97-11/1997
[10] = target: HLA-B*15:01; assay: as above; details: source organism: Dengue virus 1 Brazil/97-11/1997
[11] = target: HLA-A*26:01; assay: as above; details: source organism: Dengue virus 1 Brazil/97-11/1997
[12] = target: HLA-A*30:02; assay: as above; details: source organism: Dengue virus 1 Brazil/97-11/1997
[13] = target: HLA-A*02:01; assay: IEDB peptide-MHC binding, purified MHC/competitive/fluorescence; ≥ and ≤ were set here for values at or beyond the usual limits of such assays; details: source organism: Zaire ebolavirus
[14] = target: HLA-B*15:17; assay: IEDB peptide-MHC binding, purified MHC/direct/fluorescence; filed as Kd, often an IC50 or EC50 that approximates it; ≥ and ≤ were set here for values at or beyond the usual limits of such assays; details: source organism: Mammarenavirus lassaense
[15] = target: HLA-B*58:01; assay: as above
[16] = target: HLA-B*57:01; assay: as above; details: source organism: Mammarenavirus lassaense
[17] = target: HLA-B*51:01; assay: IEDB peptide-MHC binding, purified MHC/competitive/fluorescence; filed as Kd, often an IC50 or EC50 that approximates it; ≥ and ≤ were set here for values at or beyond the usual limits of such assays; details: source organism: Reston ebolavirus - Reston (1989)
[18] = target: HLA-B*57:01; assay: as above; details: source organism: Reston ebolavirus - Reston (1989)
[19] = target: HLA-B*18:01; assay: as above; details: source organism: Reston ebolavirus - Reston (1989)
[20] = target: HLA-B*39:01; assay: as above; details: source organism: Reston ebolavirus - Reston (1989)
[21] = target: HLA-A*26:01; assay: as above; details: source organism: Reston ebolavirus - Reston (1989)
[22] = target: HLA-B*27:03; assay: as above; details: source organism: Reston ebolavirus - Reston (1989)
[23] = target: HLA-B*46:01; assay: as above; details: source organism: Reston ebolavirus - Reston (1989)
[24] = target: HLA-A*02:01; assay: IEDB peptide-MHC binding, purified MHC/direct/fluorescence; filed as Kd, often an IC50 or EC50 that approximates it; ≥ and ≤ were set here for values at or beyond the usual limits of such assays
[25] = target: HLA-A*01:01; assay: as above
[26] = target: HLA-B*27:05; assay: as above
[27] = target: HLA-B*15:01; assay: as above
[28] = target: HLA-A*69:01; assay: as above
[29] = target: HLA-A*03:01; assay: as above
[30] = target: HLA-A*24:03; assay: as above
[31] = target: HLA-A*26:01; assay: as above
[32] = target: HLA-B*07:02; assay: as above
[33] = target: HLA-A*31:01; assay: as above
[34] = target: HLA-B*40:01; assay: as above
[35] = target: HLA-A*11:01; assay: as above
[36] = target: HLA-B*44:02; assay: as above
[37] = target: HLA-B*08:01; assay: as above
[38] = source organism: Vaccinia virus
[39] = source organism: Mammarenavirus lassaense
[40] = source organism: Mammarenavirus juninense
[41] = source organism: Zaire ebolavirus
[42] = source organism: Vaccinia virus WR
[43] = source organism: Triticum aestivum
[44] = source organism: SARS coronavirus Tor2
[45] = source organism: Dengue virus 3 Martinique/1243/1999
[46] = source organism: Salmonella enterica subsp. enterica serovar Typhi
[47] = source organism: Salmonella enterica
[48] = source organism: Vibrio vulnificus
[49] = source organism: Corynebacterium glutamicum

EKSSKYYIK
IC50 [1, 38]: ≥ 145000 nM | IC50 [2, 38]: ≥ 79000 nM

FPAGLTYSQL
Kd [3, 39]: 8280 nM | Kd [4, 39]: 111 nM | Kd [5, 39]: 115 nM | Kd [6, 39]: 155 nM | Kd [7, 39]: 603 nM

FPAIFSAEV
Kd [3, 39]: 85.6 nM | Kd [4, 39]: 40.4 nM | Kd [5, 39]: 16.8 nM | Kd [6, 39]: 65.3 nM | Kd [7, 39]: 6.94 nM

FTMAHRKPTY
Kd [8]: 2270 nM | Kd [9]: 9160 nM | Kd [10]: 313 nM | Kd ([5]; source organism: Dengue virus 1 Brazil/97-11/1997): 698 nM | Kd [11]: 476 nM | Kd [12]: 744 nM

HPDMDSLMI
Kd [3, 40]: 2900 nM | Kd [4, 40]: 79.6 nM | Kd [5, 40]: 2010 nM | Kd [6, 40]: 1720 nM | Kd [7, 40]: ≥ 23200 nM

IIHDFVDKT
IC50 [13]: 14100 nM | IC50 [1, 41]: ≥ 287000 nM | IC50 [2, 41]: ≥ 148000 nM

KPVSDLYTSM
Kd [3, 42]: ≥ 69600 nM | Kd [4, 42]: 56.6 nM | Kd [5, 42]: 34.9 nM | Kd [6, 42]: 0.297 nM | Kd [7, 42]: 10700 nM

KSFLWTQSL
Kd [14]: ≤ 1 nM | Kd [15, 39]: 42 nM | Kd [16]: 29 nM

LIMEFNSLL
Kd [17]: ≥ 20000 nM | Kd [18]: ≥ 20000 nM | Kd [19]: ≥ 20000 nM | Kd [20]: ≥ 20000 nM | Kd [21]: ≥ 20000 nM | Kd [22]: ≥ 20000 nM | Kd [23]: ≥ 20000 nM | Kd ([24]; source organism: Reston ebolavirus - Reston): 5.2 nM

LPAMCNVYI
Kd [3, 43]: 272 nM | Kd [4, 43]: 18.2 nM | Kd [5, 43]: 1100 nM | Kd [6, 43]: 685 nM | Kd [7, 43]: 182 nM

LPESDLDKVY
Kd [3, 42]: ≥ 54100 nM | Kd [4, 42]: 513 nM | Kd [5, 42]: 79 nM | Kd [6, 42]: ≥ 69600 nM | Kd [7, 42]: 10600 nM

LPYPQPQL
Kd [3, 43]: 32.3 nM | Kd [4, 43]: 14900 nM | Kd [5, 43]: 10600 nM | Kd [6, 43]: 109 nM | Kd [7, 43]: 1390 nM

MPNMLRIMA
Kd [3, 44]: 393 nM | Kd [4, 44]: 27 nM | Kd [5, 44]: 11.7 nM | Kd [6, 44]: 9.8 nM | Kd [7, 44]: 0.256 nM

MPVTAASAAQ
Kd [3, 45]: ≥ 20500 nM | Kd [5, 45]: 1590 nM

PSVIEEWKK
IC50 [2, 42]: ≥ 107000 nM

QPLSQVSF
Kd [3, 43]: 12600 nM | Kd [4, 43]: ≥ 37500 nM | Kd [5, 43]: 15000 nM | Kd [6, 43]: 6870 nM | Kd [7, 43]: ≥ 87700 nM

QPYLQLQPFL
Kd [3, 43]: 150 nM | Kd [4, 43]: ≥ 22000 nM | Kd [5, 43]: 369 nM | Kd [6, 43]: 632 nM | Kd [7, 43]: ≥ 23400 nM

QTDDGVRFT
Kd [25, 46]: 19800 nM | Kd [15, 47]: ≥ 20000 nM | Kd [24, 47]: ≥ 20000 nM | Kd [26, 47]: ≥ 20000 nM | Kd [27, 47]: ≥ 20000 nM | Kd [28, 46]: 70.3 nM | Kd [29, 47]: ≥ 20000 nM | Kd [30, 47]: ≥ 20000 nM | Kd [31, 47]: ≥ 20000 nM | Kd [32, 47]: ≥ 20000 nM | Kd [33, 47]: ≥ 20000 nM | Kd [34, 47]: ≥ 20000 nM | Kd [35, 47]: ≥ 20000 nM | Kd [36, 47]: ≥ 20000 nM | Kd [37, 47]: ≥ 20000 nM

SPEGEETII
Kd [3, 42]: 15900 nM | Kd [4, 42]: 270 nM | Kd [5, 42]: ≥ 40600 nM | Kd [6, 42]: 11100 nM | Kd [7, 42]: ≥ 78100 nM

STDTRHIPQ
Kd [25, 48]: 4410 nM | Kd [15, 48]: ≥ 20000 nM | Kd [24, 48]: ≥ 20000 nM | Kd [26, 48]: ≥ 20000 nM | Kd [27, 48]: ≥ 20000 nM | Kd [28, 48]: ≥ 20000 nM | Kd [29, 48]: ≥ 20000 nM | Kd [30, 48]: ≥ 20000 nM | Kd [31, 48]: ≥ 20000 nM | Kd [32, 48]: ≥ 20000 nM | Kd [33, 48]: ≥ 20000 nM | Kd [34, 48]: ≥ 20000 nM | Kd [35, 48]: ≥ 20000 nM | Kd [36, 48]: ≥ 20000 nM | Kd [37, 48]: ≥ 20000 nM

TNTTTEDHK
IC50 [2, 41]: ≥ 110000 nM

TTAAGPPKA
IC50 [13]: 11700 nM | IC50 [2, 41]: 40600 nM

VLPVPGASV
Kd [25, 49]: ≥ 20000 nM | Kd [15, 49]: ≥ 20000 nM | Kd [24, 49]: 63.7 nM | Kd [26, 49]: ≥ 20000 nM | Kd [27, 49]: 3810 nM | Kd [28, 49]: ≥ 20000 nM | Kd [29, 49]: ≥ 20000 nM | Kd [30, 49]: ≥ 20000 nM | Kd [31, 49]: ≥ 20000 nM | Kd [32, 49]: 10300 nM | Kd [33, 49]: ≥ 20000 nM | Kd [34, 49]: ≥ 20000 nM | Kd [35, 49]: ≥ 20000 nM | Kd [37, 49]: ≥ 20000 nM

YPDLNFDNTY
Kd [3, 42]: ≥ 69600 nM | Kd [4, 42]: 22.2 nM | Kd [5, 42]: 18.4 nM | Kd [6, 42]: ≥ 69600 nM | Kd [7, 42]: 1750 nM

YPSMFTLRHI
Kd [3, 42]: 2.58 nM | Kd [4, 42]: 0.943 nM | Kd [5, 42]: 446 nM | Kd [6, 42]: 15.5 nM | Kd [7, 42]: 20.8 nM
